The values below come from article PMC6620605 (Current biology : CB, 2019).

The test deals with T1, 6x His-SEPT9 (human septin 9, isoform 1 / isoform a) (human, UniProt Q9UHD8-1 1-586).
T1 sequence (looked up): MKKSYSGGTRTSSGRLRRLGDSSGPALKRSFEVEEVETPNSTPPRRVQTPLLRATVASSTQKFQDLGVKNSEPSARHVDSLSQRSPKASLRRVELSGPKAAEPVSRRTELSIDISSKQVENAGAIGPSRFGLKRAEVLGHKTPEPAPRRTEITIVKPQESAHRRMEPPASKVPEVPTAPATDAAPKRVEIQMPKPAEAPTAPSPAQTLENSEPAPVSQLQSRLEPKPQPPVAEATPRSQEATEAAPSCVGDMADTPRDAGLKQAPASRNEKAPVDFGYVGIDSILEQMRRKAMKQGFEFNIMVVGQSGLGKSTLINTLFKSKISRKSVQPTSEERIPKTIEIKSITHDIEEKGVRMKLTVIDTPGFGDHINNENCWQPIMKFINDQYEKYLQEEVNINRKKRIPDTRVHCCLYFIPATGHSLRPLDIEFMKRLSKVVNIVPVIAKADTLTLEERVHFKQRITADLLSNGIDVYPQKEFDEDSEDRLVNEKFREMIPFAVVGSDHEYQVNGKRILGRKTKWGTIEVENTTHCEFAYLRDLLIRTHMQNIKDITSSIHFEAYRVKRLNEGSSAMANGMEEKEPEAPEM
The experiment in a line: pull-down.

B1: GST-TSG101 UEV (TSG101 aa 1-145) (domain or fragment, human, UniProt Q99816-1 1-145, looked up)
chain: MAVSESQLKKMVSKYKYRDLTVRETVNVITLYKDLKPVLDSYVFNDGSSRELMNLTGTIPVPYRGNTYNIPICLWLLDTYPYNPPICFVKPTSSMTIKTGKHVDANGKIYLPYLHEWKHPQSDLLGLIQVMIVVFGDEPPVFSRP
Consider B1, for which the binding result is reported as “binds”.
